Experiment [1] has as its target T1, recombinant human IL-27 (human, UniProt Q14213 21-229; Q8NEV9 29-243).
T1 construct: Bought from R&D Systems (Cat. 2526-IL); also called hIL-27; rhIL-27
T1 sequence 1: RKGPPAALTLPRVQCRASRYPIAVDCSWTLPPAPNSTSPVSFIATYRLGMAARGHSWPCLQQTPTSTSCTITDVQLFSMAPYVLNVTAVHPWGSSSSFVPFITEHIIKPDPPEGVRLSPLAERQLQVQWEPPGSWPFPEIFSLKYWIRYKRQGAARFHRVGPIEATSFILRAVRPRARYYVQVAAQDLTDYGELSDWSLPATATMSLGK
T1 sequence 2: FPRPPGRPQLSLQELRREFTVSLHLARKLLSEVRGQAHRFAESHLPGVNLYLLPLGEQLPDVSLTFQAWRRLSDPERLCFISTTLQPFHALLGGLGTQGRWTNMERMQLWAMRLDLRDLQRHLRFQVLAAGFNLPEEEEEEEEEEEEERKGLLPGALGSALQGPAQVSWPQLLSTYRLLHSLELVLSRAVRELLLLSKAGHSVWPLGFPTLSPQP
In words: SPR (BIACORE 2000) as the paragraph says; values in FIG. 9. A general note: SPR reads the build-up and loss of mass on a sensor chip optically.

The target of the next experiment is T2, recombinant mouse IL-27 (mouse, UniProt O35228 19-228; Q8K3I6 29-234, limits assumed).
T2 construct: also called rodent recombinant IL-27
T2 sequence (looked up) 1: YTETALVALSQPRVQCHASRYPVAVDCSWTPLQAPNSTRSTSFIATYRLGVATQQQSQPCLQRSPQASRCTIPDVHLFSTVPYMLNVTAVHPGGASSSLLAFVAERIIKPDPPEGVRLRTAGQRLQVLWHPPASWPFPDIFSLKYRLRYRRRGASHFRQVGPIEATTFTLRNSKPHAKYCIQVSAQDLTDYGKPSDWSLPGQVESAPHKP
T2 sequence (looked up) 2: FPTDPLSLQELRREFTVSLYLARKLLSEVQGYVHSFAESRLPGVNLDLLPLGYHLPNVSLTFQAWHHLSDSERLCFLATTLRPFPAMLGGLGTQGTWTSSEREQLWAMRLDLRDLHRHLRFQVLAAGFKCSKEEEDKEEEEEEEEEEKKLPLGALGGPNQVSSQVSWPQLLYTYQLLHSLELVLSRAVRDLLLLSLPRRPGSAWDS
Nature of the experiment: column 'Affinity mIL-27 (M)'; method not given.

Experiment [2] deals with T1, recombinant human IL-27. Nature of the experiment: column 'Affinity hIL-27 (M)', property (i); method not given, paragraph 885 names SPR (BIACORE 2000).
Experiment [3] has as its target T1, recombinant human IL-27. Nature of the experiment: SPR (Biacore T200), hIL-27 on CM5 chip, single cycle kinetics.
For experiment [4], the target named is T1, recombinant human IL-27. In words: cell-based or functional assay.

As usually defined, the Kd is the concentration at which binding is half-saturated.

B1: SRF410 (antibody, V domains shown)
VH: QVQLVQSGAEVKKPGSSVKVSCKASGGTFSAYAISWVRQAPGQGLEWMGGIIPIFGTANYAQKFQGRVTITADESTSTAYMELSSLRSEDTAVYYCARSYYSSRWHYYYYMDVWGKGTTVTVSS
VL: DIQMTQSPSSVSASVGDRVTITCRASQGISSWLAWYQQKPGKAPKLLIYAASNLQSGVPSRFSGSGSGTDFTLTISSLQPEDFATYYCQQADDLPLTFGGGTKVEIK
notes: also called SRF410-A; SRF410-B
For B1, the Kd is not above 15 nM with recombinant human IL-27 [1], 5.81 nM in the experiment with recombinant mouse IL-27 and 0.39 nM with recombinant human IL-27 [2].

B2: SRF405 (antibody, V domains shown)
VH: QVQLVQSGAEVKKPGSSVKVSCKASGGTFVGYAISWVRQAPGQGLEWMGGIIPIFGIANYAQKFQGRVTITADESTSTAYMELSSLRSEDTAVYYCARSYYSSRWHYYYYMDVWGKGTTVTVSS
VL: DIQMTQSPSSVSASVGDRVTITCRASQGISSWLAWYQQKPGKAPKLLIYAASNLQSGVPSRFSGSGSGTDFTLTISSLQPEDFATYYCQQADDLPLTFGGGTKVEIK
notes: also called SRF405-A; SRF405-B
Turning to B2, the Kd with recombinant human IL-27 [1] was not above 15 nM; with recombinant mouse IL-27 it was 5.02 nM; with recombinant human IL-27 [2], 0.1 nM.

B3: SRF411 (antibody, V domains shown)
VH: QVQLVQSGAEVKKPGSSVKVSCKASGGTFESYTISWVRQAPGQGLEWMGGIAPIFGTAHYAQKFQGRVTITADESTSTAYMELSSLRSEDTAVYYCARSYYSSRWHYYYYMDVWGKGTTVTVSS
VL: DIQMTQSPSSVSASVGDRVTITCRASQGISSWLAWYQQKPGKAPKLLIYAASNLQSGVPSRFSGSGSGTDFTLTISSLQPEDFATYYCQQADDLPLTFGGGTKVEIK
notes: also called SRF411-A; SRF411-B
In the case of B3, the dissociation constant Kd with recombinant human IL-27 [1] is not above 15 nM; with recombinant mouse IL-27, 0.546 nM; with recombinant human IL-27 [2] it was 0.43 nM.

B4: Ab7.7 (antibody, human IgG1, kappa, V domains shown)
VH: EVKLVESGGGLVQPGGSLRLSCAASGFTFTSYSMSWVRQAPGKGLEWVAYISYDGGSAYYPDTVKGRFTISRDNSKKTLYLQMSSLKSEDTAMYYCARHGDYDDDDAMDYWGQGTSVTVSS
VL: DIQMTQSPSSLSASVGDRVTITCRASENIYSYLNWYQQKPGKAPKLLVYNAETLTEGVPSRFSGSGSGTDFTLTISSLQPEDFATYYCQHHYGTPLTFGQGTKLEIKR
notes: human IgG1/kappa; also called Ab7-VL4 humanized variant
Take B4: the binding result with recombinant human IL-27 [3] is “no binding (tested: 3.3 nM to 30 nM of antibody)”.

B5: Ab7.19 (antibody, human IgG1, kappa, V domains shown)
VH: EVQLVESGGGLVQPGGSLRLSCAASGFTFTSYSMSWVRQAPGKGLEWVAYISYDGGSAYYPDTVKGRFTISRDNSKNTLYLQMNSLRAEDTAVYYCARHGDYDDDDAMDYWGQGTLVTVSS
VL: DIQMTQSPSSLSASVGDRVTITCRASENIYSYLNWYQQKPGKAPKLLVYNAETLTEGVPSRFSGSGSGTDFTLTISSLQPEDFATYYCQHHYGTPLTFGQGTKLEIKR
notes: as for B4
As to B5, in the experiment with recombinant human IL-27 [3], the binding result is given as “no binding (tested: 3.3 nM to 30 nM of antibody)”.

B6: Ab7.15 (antibody, human IgG1, kappa, V domains shown)
VH: EVKLVESGGGLVQPGGSLRLSCAASGFTFTSYSMSWVRQAPGKGLEWVAYISYDGGSAYYPDTVKGRFTISRDNSKKTLYLQMNSLRAEDTAVYYCARHGDYDDDDAMDYWGQGTLVTVSS
VL: DIQMTQSPSSLSASVGDRVTITCRASENIYSYLNWYQQKPGKAPKLLVYNAETLTEGVPSRFSGSGSGTDFTLTISSLQPEDFATYYCQHHYGTPLTFGQGTKLEIKR
notes: as for B4
As to B6, the binding result with recombinant human IL-27 [3] was “no binding (tested: 3.3 nM to 30 nM of antibody)”.

B7: Ab7.23 (antibody, human IgG1, kappa, V domains shown)
VH: EVQLVESGGGLVQPGGSLRLSCAASGFTFTSYSMSWVRQAPGKGLEWVSYISYDGGSAYYPDTVKGRFTISRDNSKNTLYLQMNSLRAEDTAVYYCARHGDYDDDDAMDYWGQGTLVTVSS
VL: DIQMTQSPSSLSASVGDRVTITCRASENIYSYLNWYQQKPGKAPKLLVYNAETLTEGVPSRFSGSGSGTDFTLTISSLQPEDFATYYCQHHYGTPLTFGQGTKLEIKR
notes: as for B4
On to B7, for which the binding result in the experiment with recombinant human IL-27 [3] is reported as “no binding (tested: 3.3 nM to 30 nM of antibody)”.

B8: Ab7.11 (antibody, human IgG1, kappa, V domains shown)
VH: EVQLVESGGGLVQPGGSLRLSCAASGFTFTSYSMSWVRQAPGKGLEWVAYISYDGGSAYYPDTVKGRFTISRDNSKNTLYLQMSSLKSEDTAMYYCARHGDYDDDDAMDYWGQGTLVTVSS
VL: DIQMTQSPSSLSASVGDRVTITCRASENIYSYLNWYQQKPGKAPKLLVYNAETLTEGVPSRFSGSGSGTDFTLTISSLQPEDFATYYCQHHYGTPLTFGQGTKLEIKR
notes: as for B4
For the molecule B8, the binding result in the experiment with recombinant human IL-27 [3] is listed as “no binding (tested: 3.3 nM to 30 nM of antibody)”.

B9: SRF535 (antibody, V domains shown)
VH: EVQLVESGGGLVQPGGSLRLSCAASGFTFSSYGMSWVRQAPGKGLEWVANIKQDGSEKYYVDSVKGRFTISRDNAKNSLYLQMNSLRAEDTAVYYCARDAPWDIYDYYMDVWGKGTTVTVSS
VL: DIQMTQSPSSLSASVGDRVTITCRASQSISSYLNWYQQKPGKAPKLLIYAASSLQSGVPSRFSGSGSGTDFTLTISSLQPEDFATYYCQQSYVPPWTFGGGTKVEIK
notes: also called SRF535-A; SRF535-B
For the molecule B9, the Kd with recombinant human IL-27 [1] is not above 15 nM; with recombinant human IL-27 [2], 11.5 nM. Besides, the binding result with recombinant mouse IL-27 was “no binding”.

B10: SRF543 (antibody, V domains shown)
VH: QVQLQQWGAGLLKPSETLSLTCAVYGGSFSDYEWSWIRQPPGKGLEWIGEIDWSGITNYNPSLKSRVTISVDTSKNQFSLKLSSVTAADTAVYYCARLPMYYYDSSVSTGSVDVWGQGTMVTVSS
VL: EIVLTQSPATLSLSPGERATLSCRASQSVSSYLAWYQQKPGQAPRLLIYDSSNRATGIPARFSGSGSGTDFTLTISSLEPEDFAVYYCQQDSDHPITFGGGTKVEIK
notes: also called SRF543-A; SRF543-B
Take B10: the Kd is 62.1 nM with recombinant mouse IL-27 and 0.026 nM with recombinant human IL-27 [2].

B11: SRF538 (antibody, V domains shown)
VH: QVQLVESGGGVVQPGRSLRLSCAASGFTFSSYGMHWVRQAPGKGLEWVAVIWYDGSNKYYADSVKGRFTISRDNSKNTLYLQMNSLRAEDTAVYYCARGAPEYVDVWGQGTMVTVSS
VL: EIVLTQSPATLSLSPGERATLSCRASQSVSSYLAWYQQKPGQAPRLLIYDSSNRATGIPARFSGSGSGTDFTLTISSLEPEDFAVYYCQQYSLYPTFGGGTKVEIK
notes: also called SRF538-A; SRF538-B
Regarding B11, the equilibrium dissociation constant (Kd) in the experiment with recombinant human IL-27 [1] is not above 15 nM; with recombinant mouse IL-27 it was 182 nM; with recombinant human IL-27 [2], 8.93 nM.

B12: SRF381 (antibody, V domains shown)
VH: EVQLVESGGGLVKPGGSLRLSCAASGFTFRSYGMNWVRQAPGKGLEWVSSISSSSSYIYYADSVKGRFTISRDNAKNSLYLQMNSLRAEDTAVYYCARDGGRTSYTATAHNWFDPWGQGTLVTVSS
VL: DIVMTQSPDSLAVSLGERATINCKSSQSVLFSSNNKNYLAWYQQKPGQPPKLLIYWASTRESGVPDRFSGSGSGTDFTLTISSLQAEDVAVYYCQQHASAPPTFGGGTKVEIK
notes: also called SRF381-A; SRF381-B
Turning to B12, in the experiment with recombinant human IL-27 [4], the “IC50 of inhibition of phosphorylation of STAT1 in HUT-78 cells” value came to 0.08 µg/mL, the “IC50 of inhibition of phosphorylation of STAT1 in U937 cells” value turned out to be 0.081 µg/mL and the “IC50 of inhibition of phosphorylation of STAT1 in pooled human PBMCs” value came to 0.141 µg/mL. Also, in the experiment with recombinant mouse IL-27, the Kd amounted to 0.456 nM. In addition, the Kd with recombinant human IL-27 [2] stood at 0.0028 nM.

B13: SRF386 (antibody, V domains shown)
VH: EVQLVESGGGLVKPGGSLRLSCAASGFTFASYGMNWVRQAPGKGLEWVSSISSSSSYIYYADSVKGRFTISRDNAKNSLYLQMNSLRAEDTAVYYCARDGGRTSYTATAHNWFDPWGQGTLVTVSS
VL: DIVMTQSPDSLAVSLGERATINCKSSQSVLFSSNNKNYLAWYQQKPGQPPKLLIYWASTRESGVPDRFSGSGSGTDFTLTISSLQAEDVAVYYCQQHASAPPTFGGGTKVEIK
notes: also called SRF386-A; SRF386-B
For the molecule B13, the values for the Kd with recombinant human IL-27 [1], with recombinant mouse IL-27 and in the experiment with recombinant human IL-27 [2] were not above 15 nM, 1.75 nM and 0.0034 nM, respectively.

B14: SRF384 (antibody, V domains shown)
VH: EVQLVESGGGLVKPGGSLRLSCAASGFTFSRYGMNWVRQAPGKGLEWVSSISSSSAYILYADSVKGRFTISRDNAKNSLYLQMNSLRAEDTAVYYCARDGGRTSYTATAHNWFDPWGQGTLVTVSS
VL: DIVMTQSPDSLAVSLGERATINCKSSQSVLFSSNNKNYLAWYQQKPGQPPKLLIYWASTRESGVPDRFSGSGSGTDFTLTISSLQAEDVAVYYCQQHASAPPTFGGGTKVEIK
notes: also called SRF384-A; SRF384-B
For B14, the equilibrium dissociation constant (Kd) is not above 15 nM with recombinant human IL-27 [1], 0.405 nM in the experiment with recombinant mouse IL-27 and 0.0024 nM with recombinant human IL-27 [2].

B15: SRF382 (antibody, V domains shown)
VH: EVQLVESGGGLVKPGGSLRLSCAASGFTFSRTGMNWVRQAPGKGLEWVSSISSSSSYIYYADSVKGRFTISRDNAKNSLYLQMNSLRAEDTAVYYCARDGGRTSYTATAHNWFDPWGQGTLVTVSS
VL: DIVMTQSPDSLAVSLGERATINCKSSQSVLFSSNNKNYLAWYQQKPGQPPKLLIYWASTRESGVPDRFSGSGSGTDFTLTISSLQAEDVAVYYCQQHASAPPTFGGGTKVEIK
notes: also called SRF382-A; SRF382-B
As for B15, the Kd with recombinant human IL-27 [1] was not above 15 nM; with recombinant mouse IL-27, 2.5 nM; with recombinant human IL-27 [2], 0.0075 nM.
